These results are taken from paper PMC3660561, “Crystal Structure of DmdD, a Crotonase Superfamily Enzyme That Catalyzes the Hydration and Hydrolysis of Methylthioacryloyl-CoA” (PLoS ONE, 2013).

Residue numbers refer to the chain shown, from its start. In names and notes the source's numbering stands.

Substrate in data set [1]: CS/C=C/C(=O)SCCNC(=O)CCNC(=O)[C@H](O)C(C)(C)COP(=O)(O)OP(=O)(O)OC[C@H]1O[C@@H](n2cnc3c(N)ncnc32)[C@H](O)[C@@H]1OP(=O)(O)O
The experiment in a line: MeSH release by headspace gas chromatography. Type of data set: biochemical, Ruegeria pomeroyi. The settings on record: MeSH release (equivalent to hydration), 100 mM HEPES pH 7.4. An excerpt:
MeSH release by headspace gas chromatography on DmdD

Data set [2] concerns the molecule itself. Description: crystal structure; wild-type DmdD free enzyme, 1.5 Å; space group P2(1)3, two monomers in the asymmetric unit, hexamer generated by the crystallographic 3-fold axis; crystals from 100 mM Tris pH 8.5, 25% PEG 3350, 200 mM NaCl, 20°C.
Substrate in data set [3]: C/C=C/C(=O)SCCNC(=O)CCNC(=O)[C@H](O)C(C)(C)COP(=O)(O)OP(=O)(O)OC[C@H]1O[C@@H](n2cnc3c(N)ncnc32)[C@H](O)[C@@H]1OP(=O)(O)O
Description: purified protein. The class given is biochemical, Ruegeria pomeroyi. The settings on record: hydration, 100 mM HEPES pH 7.4.

Substrate in data set [4]: CC(O)CC(=O)SCCNC(=O)CCNC(=O)[C@H](O)C(C)(C)COP(=O)(O)OP(=O)(O)OC[C@H]1O[C@@H](n2cnc3c(N)ncnc32)[C@H](O)[C@@H]1OP(=O)(O)O
Description: purified protein. The class given is biochemical, Ruegeria pomeroyi. The settings on record: CoA ester hydrolysis, 100 mM HEPES pH 7.4.

Substrate in data set [5]: CSCCC(=O)SCCNC(=O)CCNC(=O)[C@H](O)C(C)(C)COP(=O)(O)OP(=O)(O)OC[C@H]1O[C@@H](n2cnc3c(N)ncnc32)[C@H](O)[C@@H]1OP(=O)(O)O
The experiment in a line: purified protein. Type of data set: biochemical, Ruegeria pomeroyi. The following applies: CoA ester hydrolysis, 100 mM HEPES pH 7.4.

Data set [6] deals with the molecule itself. Description: crystal structure; E121A mutant crystals soaked 48 h with 10 mM MTA-CoA or MMPA-CoA, 1.8 Å; space group P2(1)3, two monomers in the asymmetric unit.

B1: Ruegeria pomeroyi DmdD, wild type (enzyme)
chain: MTQDVTSGYSNLDLDLRDNGVCVVTLNRPDKRNALDVATIEELVTFFSTAHRKGVRAVVLTGAGDHFCAGLDLVEHWKADRSADDFMHVCLRWHEAFNKMEYGGVPIIAALRGAVVGGGLELASAAHLRVMDQSTYFALPEGQRGIFTGGGATIRVSDMIGKYRMIDMILTGRVYQGQEAADLGLAQYITEGSSFDKAMELADKIASNLPLTNFAICSAISHMQNMSGLDAAYAEAFVGGIVNTQPAARERLEAFANKTAARVRPNS
notes: DmdD (methylthioacryloyl-CoA hydratase) of Ruegeria pomeroyi, sub-cloned into pET26b; Hexamer (dimer of trimers); The C-terminal His-tag was not cleaved before crystallization; also called wild-type DmdD; free enzyme; not shown: His6, C-terminal, kept
For B1, the Km in data set [1] was 9.4 ± 2.1 µM; in the data set “purified protein [3]” it was 19.0 ± 3.1 µM; in the data set “purified protein [4]”, 119 ± 20 µM; in “purified protein [5]”, 69.0 ± 16.4 µM. The kcat was found to be 47 ± 3 s⁻¹ in data set [1], 42 ± 3 s⁻¹ in the data set “purified protein [3]”, 13.2 ± 1.6 s⁻¹ in “purified protein [4]” and 0.9 ± 0.1 s⁻¹ in the data set “purified protein [5]”. Further, in data set [2], the “stoichiometry N” value came out at 6.

B2: Ruegeria pomeroyi DmdD E121A mutant (enzyme)
chain: B1 chain with E121A
notes: DmdD (methylthioacryloyl-CoA hydratase) of Ruegeria pomeroyi with the E121A mutation (QuikChange); crystals soaked with MTA-CoA or MMPA-CoA; PDB 4IZB is the wild-type parent; source: E. coli, purified following the same protocol as for the wild-type protein; not shown: His6, C-terminal, kept
Turning to B2, the “stoichiometry N” value in data set [6] amounted to 6.

B3: DmdD (Ruegeria pomeroyi DSS-3; E141A) (protein)
chain: B1 chain with E141A
notes: pET26b, C-terminal hexahistidine tag (not cleaved before crystallization), expressed in E. coli BL21(DE3) Star; homohexamer (dimer of trimers)
Consider B3, for which, in data set [1], the Michaelis-Menten constant (Km) was 63.3 ± 12.0 µM and the kcat was found to be 0.0036 ± 0.0004 s⁻¹.

The Km is the concentration of substrate that gives half-maximal velocity. Usually kcat stands for the maximal rate divided by the concentration of active sites. In general, stoichiometry N refers to a count of units in the complex or per binding partner.
